Reference: publication doi:10.1101/645523

Assays:
Assay in all cases: cryo-EM structure
[1] = target: Capsid associated protein P30 of bacteriophage PR772 (bacteriophage PR772)
[2] = target: Host-recognition protein P5 of bacteriophage PR772 (bacteriophage PR772)
[3] = target: Major capsid protein P3 of bacteriophage PR772 (bacteriophage PR772)

Capsid associated protein P30 of bacteriophage PR772 (natural protein)
stoichiometry N [1]: 2

Host-recognition protein P5 of bacteriophage PR772 (natural protein)
stoichiometry N [2]: 3

Major capsid protein P3 of bacteriophage PR772 (natural protein)
stoichiometry N [3]: 3
